How the values were obtained:
[1] = biological target: T1, Bcl-XL single-cysteine mutant 152C, Alexa647-labelled (human, UniProt Q07817-1 1-233, Alexa 647-maleimide on the single cysteine at 152); assay: FRET or BRET; purified proteins with liposomes, protein binding (FRET) and liposome permeabilization measured at the same time, ABT-263 titrated; conditions: both partners purified
[2] = biological target: T1, Bcl-XL single-cysteine mutant 152C, …; assay: FRET or BRET; 4 nM Alexa568-labelled BimL or BimL-dCTS with increasing Alexa647-labelled Bcl-XL in samples containing mouse liver mitochondria; apparent Kd; conditions: both partners purified
[3] = biological target: T1, Bcl-XL single-cysteine mutant 152C, …; assay: FRET or BRET; purified Alexa568-labelled BH3 protein (10 nM) and Alexa647-labelled Bcl-XL (40 nM) with liposomes, ABT-263 titrated in; 37 C, 1 h; relative displacements, not absolute affinity; conditions: both partners purified
mCerulean3-Bcl-XL = biological target: T2, mCerulean3-Bcl-XL (human, UniProt Q07817-1 1-233); assay: FRET or BRET; FLIM-FRET in live MCF-7 cells: mCer3-Bcl-XL or mCer3-Bcl-2 stably expressed (donor), Venus-BH3 protein transiently expressed (acceptor); binding curves of FLIM-FRET efficiency against the Venus:mCer3 intensity ratio, 25 C; untreated, DMSO, 20 uM ABT-263 (18-24 h) or 1.25-20 uM A-1155463, A-1331852, ABT-263; R values interpolated at ratio 0.5 (Bcl-XL) or 0.25 (Bcl-2), ^VBad4E signal subtracted; conditions: partners not purified
T2 construct: Bcl-XL, human; GGS linker between mCerulean3 and Bcl-XL; also called ^CBcl-XL; ^cBcl-XL; source: MCF-7 and BMK-DKO, stably transfected clones, in live cells; not shown: mCerulean3, N-terminal, kept
T2 sequence (Q07817 whole entry): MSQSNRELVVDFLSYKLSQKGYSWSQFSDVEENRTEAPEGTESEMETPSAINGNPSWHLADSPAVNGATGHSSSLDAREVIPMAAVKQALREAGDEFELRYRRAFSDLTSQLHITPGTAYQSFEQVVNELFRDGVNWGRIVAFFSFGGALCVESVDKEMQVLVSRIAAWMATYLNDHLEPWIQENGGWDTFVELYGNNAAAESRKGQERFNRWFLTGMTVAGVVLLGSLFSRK

mCerulean3-Bcl-2 = biological target: T3, mCerulean3-Bcl-2 (human, UniProt P10415 1-239); assay: as above; conditions: partners not purified
T3 construct: Bcl-2, human; GGS linker between mCerulean3 and Bcl-2; also called ^CBcl-2; ^cBcl-2; source: MCF-7, stably transfected clone, in live cells; not shown: mCerulean3, N-terminal, kept
T3 sequence (P10415 whole entry): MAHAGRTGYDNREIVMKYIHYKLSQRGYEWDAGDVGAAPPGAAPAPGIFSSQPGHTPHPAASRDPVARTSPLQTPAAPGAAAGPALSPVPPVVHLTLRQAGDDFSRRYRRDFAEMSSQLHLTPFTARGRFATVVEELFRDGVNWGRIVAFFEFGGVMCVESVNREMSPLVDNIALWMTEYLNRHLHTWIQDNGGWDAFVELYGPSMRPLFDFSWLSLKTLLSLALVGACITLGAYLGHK

T1 sequence (Q07817 other isoform, or with tags, fused parts or gaps mutant): as the sequence (Q07817 whole entry) above, with V152C counted along it

Row | IC50 of ABT-263 for FRET of the pair [1] [nM] | Kd [2] [nM] | IC50 of ABT-263 for displacing the pair [3] [nM] | R_(ABT-263), % of FRET signal left with 20 uM ABT-263 (mCerulean3-Bcl-XL) [%] | R_(ABT-263), % of FRET signal left with 20 uM ABT-263 (mCerulean3-Bcl-2) [%] | Binder
1 |  |  |  | 70.1 | 64.8 | Venus-BimEL-V192E (natural protein, mouse, UniProt O54918-1 1-196, looked up, BimEL, mouse; also called ^VBimEL-V192E; ^vBimEL-V192E; source: MCF-7, transiently transfected, in live cells; not shown: Venus, N-terminal, kept) MAKQPSDVSSECDREGGQLQPAERPPQLRPGAPTSLQTEPQGNPDGEGDRCPHGSPQGPLAPPASPGPFATRSPLFIFVRRSSLLSRSSSGYFSFDTDRSPAPMSCDKSTQTPSPPCQAFNHYLSAMASIRQSQEEPEDLRPEIRIAQELRRIGDEFNETYTRRVFANDYREAEDHPQMVILQLLRFIFRLEWRRH
2 |  |  |  | 41.9 | 51 | Venus-BimEL-L185E (natural protein, mouse, UniProt O54918-1 1-196, looked up, BimEL, mouse; also called ^VBimEL-L185E; ^vBimEL-L185E; source: MCF-7, transiently transfected, in live cells; not shown: Venus, N-terminal, kept) MAKQPSDVSSECDREGGQLQPAERPPQLRPGAPTSLQTEPQGNPDGEGDRCPHGSPQGPLAPPASPGPFATRSPLFIFVRRSSLLSRSSSGYFSFDTDRSPAPMSCDKSTQTPSPPCQAFNHYLSAMASIRQSQEEPEDLRPEIRIAQELRRIGDEFNETYTRRVFANDYREAEDHPQMVILQLERFIFRLVWRRH
3 |  |  |  | 51 | 63 | Venus-BimEL-I188E (natural protein, mouse, UniProt O54918-1 1-196, looked up, BimEL, mouse; also called ^VBimEL-I188E; ^vBimEL-I188E; source: MCF-7, transiently transfected, in live cells; not shown: Venus, N-terminal, kept) MAKQPSDVSSECDREGGQLQPAERPPQLRPGAPTSLQTEPQGNPDGEGDRCPHGSPQGPLAPPASPGPFATRSPLFIFVRRSSLLSRSSSGYFSFDTDRSPAPMSCDKSTQTPSPPCQAFNHYLSAMASIRQSQEEPEDLRPEIRIAQELRRIGDEFNETYTRRVFANDYREAEDHPQMVILQLLRFEFRLVWRRH

More lines, now with the values behind:

Row | Binder | IC50 of ABT-263 for FRET of the pair [1] [nM] | Kd [2] [nM] | IC50 of ABT-263 for displacing the pair [3] [nM] | R_(ABT-263), % of FRET signal left with 20 uM ABT-263 (mCerulean3-Bcl-XL) [%] | R_(ABT-263), % of FRET signal left with 20 uM ABT-263 (mCerulean3-Bcl-2) [%]
4 | BimL single-cysteine mutant 41C, Alexa568-labelled (natural protein, Alexa 568-maleimide on the single cysteine at 41) MAKQPSDVSSECDREGGQLQPAERPPQLRPGAPTSLQTEPCDRSPAPMSCDKSTQTPSPPCQAFNHYLSAMASIRQSQEEPEDLRPEIRIAQELRRIGDEFNETYTRRVFANDYREAEDHPQMVILQLLRFIFRLVWRRH | > 700 | 3 ± 1 | > 4000 |  | 
5 | BimL-dCTS, Alexa568-labelled (domain or fragment, Alexa568 on a single cysteine) MAKQPSDVSSECDREGGQLQPAERPPQLRPGAPTSLQTEPCDRSPAPMSCDKSTQTPSPPCQAFNHYLSAMASIRQSQEEPEDLRPEIRIAQELRRIGDEFNETYTRRVFANDYREAEDHP |  | 35 ± 5 | ~200 |  | 
6 | Venus-BimEL (natural protein, mouse, UniProt O54918-1 1-196, looked up, BimEL, mouse; GGS linker after Venus; also called ^VBimEL; ^vBimEL; source: MCF-7 and BMK-DKO, transiently transfected, in live cells; not shown: Venus, N-terminal, kept) MAKQPSDVSSECDREGGQLQPAERPPQLRPGAPTSLQTEPQGNPDGEGDRCPHGSPQGPLAPPASPGPFATRSPLFIFVRRSSLLSRSSSGYFSFDTDRSPAPMSCDKSTQTPSPPCQAFNHYLSAMASIRQSQEEPEDLRPEIRIAQELRRIGDEFNETYTRRVFANDYREAEDHPQMVILQLLRFIFRLVWRRH |  |  |  | 86.3 | 83.1
7 | Venus-BimEL-CTS2A (natural protein, mouse, UniProt O54918-1 1-196, looked up, BimEL, mouse; also called ^VBim-CTS2A; ^vBimEL-CTS2A; source: MCF-7, transiently transfected, in live cells; not shown: Venus, N-terminal, kept) MAKQPSDVSSECDREGGQLQPAERPPQLRPGAPTSLQTEPQGNPDGEGDRCPHGSPQGPLAPPASPGPFATRSPLFIFVRRSSLLSRSSSGYFSFDTDRSPAPMSCDKSTQTPSPPCQAFNHYLSAMASIRQSQEEPEDLRPEIRIAQELRRIGDEFNETYTRRVFANDYREAEDHPQMVILQLLAFIFALVWRRH |  |  |  | 88.8 | 80.7
8 | Venus-BimEL-I146Y (natural protein, mouse, UniProt O54918-1 1-196, looked up, BimEL, mouse; also called ^vBimEL-I146Y; source: MCF-7, transiently transfected, in live cells; not shown: Venus, N-terminal, kept) MAKQPSDVSSECDREGGQLQPAERPPQLRPGAPTSLQTEPQGNPDGEGDRCPHGSPQGPLAPPASPGPFATRSPLFIFVRRSSLLSRSSSGYFSFDTDRSPAPMSCDKSTQTPSPPCQAFNHYLSAMASIRQSQEEPEDLRPEIRYAQELRRIGDEFNETYTRRVFANDYREAEDHPQMVILQLLRFIFRLVWRRH |  |  |  | 88.7 | 65.3
9 | Venus-BimEL-I146Y-L185E (natural protein, mouse, UniProt O54918-1 1-196, looked up, BimEL, mouse; also called ^vBimEL-I146Y-L185E; source: MCF-7, transiently transfected, in live cells; not shown: Venus, N-terminal, kept) MAKQPSDVSSECDREGGQLQPAERPPQLRPGAPTSLQTEPQGNPDGEGDRCPHGSPQGPLAPPASPGPFATRSPLFIFVRRSSLLSRSSSGYFSFDTDRSPAPMSCDKSTQTPSPPCQAFNHYLSAMASIRQSQEEPEDLRPEIRYAQELRRIGDEFNETYTRRVFANDYREAEDHPQMVILQLERFIFRLVWRRH |  |  |  | 40 | 36.9
10 | Venus-BimEL-I181E (natural protein, mouse, UniProt O54918-1 1-196, looked up, BimEL, mouse; also called ^vBimEL-I181E; source: MCF-7, transiently transfected, in live cells; not shown: Venus, N-terminal, kept) MAKQPSDVSSECDREGGQLQPAERPPQLRPGAPTSLQTEPQGNPDGEGDRCPHGSPQGPLAPPASPGPFATRSPLFIFVRRSSLLSRSSSGYFSFDTDRSPAPMSCDKSTQTPSPPCQAFNHYLSAMASIRQSQEEPEDLRPEIRIAQELRRIGDEFNETYTRRVFANDYREAEDHPQMVELQLLRFIFRLVWRRH |  |  |  | 63.9 | 73.3

Reference: publication PMC6414199, “Bim escapes displacement by BH3-mimetic anti-cancer drugs by double-bolt locking both Bcl-XL and Bcl-2” (eLife, 2019)
